The values below come from US20240180969A1 (published 2024).

The target in this test is T1, peptide on HLA-A*11:01 (human).
T1 peptide: VVVGAVGVGK
Nature of the test: activation reporter or marker. As for the experimental part:
Jurkat NFAT-Luciferase effector cells (JNL) cells were transfected on day 1 with TCR or CAR constructs using standard protocols for the Neon™ transfection system (ThermoFisher MPK5000). T2 HLA-A*11 target cells were loaded with peptide […] (SEQ ID NO: 110). Peptides were resuspended in DMSO, and serially-diluted 20 times, 3× per dilution. Serially diluted peptide solutions were added to T2 HLA-A*11 cells resuspended in peptide-loading media (RPMI 1640+1% BSA+1×P/S). This yielded peptide-loaded T2 HLA-A*11 cells at approximately ˜0.67E6/mL, with peptide concentrations ranging from ˜10 fM to 100 μM, including a control at 0 μM. Peptide-loaded T2 HLA-A*11 cells were incubated overnight at 37° C. in 384-well plates, plated at 10,000 cells per well (Corning 3570). On day 2, transfected JNL cells (10,000 cells/well) were added to the peptide-loaded T2 HLA-A*11 cells to a final volume of 30 μL. After a 6-hour incubation at 37° C., the One-Step™ Luciferase assay system (Firefly luciferase, BPS Bioscience, 60690) was used to determine luminescence intensity on a Tecan Infinite® M1000.

B1: Positive Control TCR (TRAV3-3*01/TRBV4*01) (TCR, V domains shown)
Valpha: GEQVEQRPPHLSVREGDSAVITCTYTDPNSYYFFWYKQEPGASLQLLMKVFSSTEINEGQGFTVLLNKKDKRLSLNLTAAHPGDSAAYFCAVSGGTNSAGNKLTFGIGTRVLVRP
Vbeta: ETAVFQTPNYHVTQVGNEVSFNCKQTLGHDTMYWYKQDSKKLLKIMFSYNNKQLIVNETVPRRFSPQSSDKAHLNLRIKSVEPEDSAVYLCASSRDWGPAEQFFGPGTRLTVL
Regarding B1, the binding result is recorded as “recognises”.
